# Measurements: the nanobody polyreactivity screen of Harvey et al. (2022)
# Test: yeast display, Sf9 membrane polyspecificity reagent, FACS + sequencing; frameworks hold sequencing errors
# Summary of the method: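 Nanobodies came from a synthetic yeast display library in Saccharomyces cerevisiae BJ5465, induced with galactose for 36–48 hours and stained for 1 hour at 4 °C with 10% biotinylated, detergent-solubilized Sf9 membrane reagent. Cells were enriched on streptavidin microbeads and then FACS-sorted, with low and high (top ~1%) gates set on anti-HA fluorescence for expression and streptavidin fluorescence for reagent binding. Each polyreactivity label reflects the gate a clone came from. Genes were amplified by colony PCR, sequenced by MiSeq 2 × 250 and filtered by CDR length.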
row,Sequence,polyreactivity (PSR sort gate)
1,QVQLVESGGGLVQAGGSLRLSCAASGFTFDDNAMGWYRQAPGKERELVATISYSDGNTYYADSVKGRFTISRDNAKNTVYLQMNSLIPEDTAVYYCAADDWAVYYIGLDYDYWGQGTQVTVSS,low polyreactivity
2,QVQLVESGGGLVQAGGSLRLSCAASGFTFDDNAMGWYRQAPGKERELVATISYSDGNTYYADSVKGRFTISRDNAKNTVYLQMNSLKPEDTAVYYCAADEWAVYYIGLDYDYWGQGTQVTVSS,low polyreactivity
3,QVQLVESGGGLVQAGGSLRLSCAASGFTFDENAMGWYRQAPGINYSGASTYYADSVKGRFTISRDNAKNTVYLQMNSLKADDTAVYYCAAEVVAQMNYWGQGTQVTVSS,low polyreactivity
4,QVQLVESGGGLVQAGGSLRLSCAASGFTFDENAMGWYRQAPGINYSGASTYYADSVMGRFTFSRDNAKNTVYLQMNSLKPEDTAVYYCAAEVVAQMNYWGQGTQVTVSS,low polyreactivity
5,QVQLVESGGGLVQAGGSLRLSCAASGFTFDFYAMGWYRQAPGKERELVAAISKNDGTTYYADSVKGRFTISRDNAKNTVYLQMNSLKPEDTAVYYCAAESGYAVYTYVSSGDYWGQGTQVTVSS,low polyreactivity
6,QVQLVESGGGLVQAGGSLRLSCAASGFTFDFYAMGWYRQAPGKERELVADISSSDGSTYADSVKGRFTISRDNAKNTVYLQMNSLKPEDTAVYYCAADYDNQYDFSLDDEYWGQGTQVTVSS,low polyreactivity
7,QVQLVESGGGLVQAGGSLRLSCAASGFTFDGNAMGWYRQAPGKERELVATITSGGNTKYADSVKGRFTISRDNAKNTVYFQMNSLKPEDTAVYYCAAAQYNYRRFNYWGQGTQVTVSS,low polyreactivity
8,QVQLVESGGGLVQAGGSLRLSCAASGFTFDINAMGWYRQAPGKERELVADITSGGTTDYADSVKGRFTISRDNAKNTVYLQMNSLKPEDTADYYCAAEVLDAYYGDDYWGQGTQVTVSS,high polyreactivity
9,QVQLVESGGGLVQAGGSLRLSCAASGFTFDIYGMGWYRQAPGKERELVASITSRSARTYYADSVKGRFTISRYNAKNTVYLQMNSLKPEDTAVYYCAADTTIKRKYLAIRGYWGQGTQVTVSS,high polyreactivity
10,QVQLVESGGGLVQAGGSLRLSCAASGFTFDKNVMGWYRQAPGKERELVAAISVRGGTTYYADSVKGRFTISRDNAMNTVYLQMNSLKPEDTAVYYCAARAYGPPARYDSWGQGTQVTVSS,low polyreactivity
11,QVQLVESGGGLVQAGGSLRLSCAASGFTFDKYAMGWYRQAPGKERELVAAISSSGGSTYYADSVKGRFTISRDNAKNTVYLQMNSLKPEDTAVYYCATGRIRWYARYDYWGHGTQVTVSS,high polyreactivity
12,QVQLVESGGGLVQAGGSLRLSCAASGFTFDQNAMGWYRQAPGKERELVAAISVGGGSTYYADSVKGRFTISRDNAKNTVYLQMNSLKPEDTAVYYCAASYVYPASFHYYYWGQGTQVTVSS,high polyreactivity
13,QVQLVESGGGLVQAGGSLRLSCAASGFTFDRNAMGWYRQAPGKERELVATISQSGTNTYYADSVKGRFTISRDNAKNTVYLQMNSLKPEDTAVYYCNARYIFYRYDYWGQGTQVTVSS,low polyreactivity
14,QVQLVESGGGLVQAGGSLRLSCAASGFTFDSYAMGWYRQAPGNDRELVAAISYRGGSTYYADSVKGRFSISRDNAKNTVYLQMNSLKPEDTAVFYCAARSPSAAYGSYGVYSWGQGTQVTVSS,high polyreactivity
15,QVQLVESGGGLVQAGGSLRLSCAASGFTFDTNAMGWYRPAPGKERELVAAISRIGGRTYADSVKGRFTISRDNAKNTVYLQMNSLKPEDTAVYYCAADTTWYPYGYDSWGQGTQVTVSS,low polyreactivity
16,QVQLVESGGGLVQAGGSLRLSCAASGFTFDWYAMGWYRQAPGKERELVAAISSSGRTNYADSVKGRFTISRDNAKNTVYLQMNSLKPEDTAVYYCNRDYPYIWHKGARYWHENDYWGQGTQVTVSS,low polyreactivity

row,Sequence,polyreactivity (PSR sort gate)
1,QVQLVESGGGLVQAGGSLRLSCAASGFTFDYNAMGWSRQAPGKERELVAVISSSGSRTYYADSVKGRFTISRDNAKNTVYLQMNSLKPEDTAVYYCAAARIGTRDYWGQGTQVTVSS,high polyreactivity
2,QVQLVESGGGLVQAGGSLRLSCAASGFTFDYYAMGWYRQAPGKERELVAAISSSGGSTYYADSVKGRFTISRDNAKNTVYLQMNSLKPADTAVYYCGTGHSKKYDYWGQGTQVTVSS,high polyreactivity
3,QVQLVESGGGLVQAGGSLRLSCAASGFTFDYYAMGWYRQAPGKERELVATITSGGRTNYADSVKGRFTLSRDNAKNTVYLQMNSLNPEDTAVYYCAVDWWNVEYFYSATSGDYWGQGTQVTVSS,low polyreactivity
4,QVQLVESGGGLVQAGGSLRLSCAASGFTFEGYAMGWYRQAPGKERELVAAISYSGSSTYYADSVKGRFTISRDNAKNTVYLQMNSLKPEDTAVYYCNARRHWYSAWGYDYWGQGTQVTVSS,high polyreactivity
5,QVQLVESGGGLVQAGGSLRLSCAASGFTFEKNAMGWYGQAPGKERELVAAISRGGSTYADSVKGRFTISRDNAKTTVDLQMNSLKPEDTAVYYCAADTVYIFSSAINGEFGYWGQGTQVTVSS,low polyreactivity
6,QVQLVESGGGLVQAGGSLRLSCAASGFTFERYAMGWYRQAPGKERELVAAITGSGGSTYYADSVKGRFTISRDNAKTTVYLQMNSLKPEDTAVYYCADYSAYYGCDYWGQGTQVTVSS,low polyreactivity
7,QVQLVESGGGLVQAGGSLRLSCAASGFTFERYTMGWYRPAPGKERELVATISRRSGRTSYADSVKGRFTISRDNAKNTVYLQMNSLKPEDTAVYYCAVDDAYPDRYDYWGQGTQVTVSS,high polyreactivity
8,QVQLVESGGGLVQAGGSLRLSCAASGFTFERYTMGWYRQAPGKERELVATISRRSGRTSYADSVKGRFTISRDNAKNSVYLQMNSLKPEDTAVYYCAVDDAYPDRYDYWGQGTQVTVSS,high polyreactivity
9,QVQLVESGGGLVQAGGSLRLSCAASGFTFERYTMGWYRQAPGKERELVATISRRSGRTSYADSVKGRFTISRDNAKNTVYLQMNSLKPEDTAVYYCAVDDAYPDRYDYWGQGTQVTVSS,high polyreactivity
10,QVQLVESGGGLVQAGGSLRLSCAASGFTFESNAMGWYRQAPGKERELVAAITSSGGRTYYADSVKGRFTISRDNAKNTVYLQMNSLKPEDTAVYYCAATGKAPRESGGVYSMDWGQGTQVTVSS,low polyreactivity
11,QVQLVESGGGLVQAGGSLRLSCAASGFTFEVYAMGWYIQAPGKERELVAAITSSGGRTYYADSVKGRFTISRDNAKNTVYLQMNSLKPEDTAVYYCNARSKQPVYPYVQSLNYWGQGTQVTVSS,high polyreactivity
12,QVQLVESGGGLVQAGGSLRLSCAASGFTFEYNALGWYRQAPGKERELVAAISSGGRTNYADSVKGRFTISRDNAKNTVYLQMNSLKPEDTAVYYCAKRLGVRPAFYYWGQGTLVTVSS,high polyreactivity
13,QVQLVESGGGLVQAGGSLRLSCAASGFTFEYNAMGWYRQAPGKERELVAVITYRGGSTYYADSVKGRFTISRDHAKNTVYLQMNSLKPEDTAVYYCAARLSSNYWGLKRWGYGYWGQGTQVTVSS,high polyreactivity
14,QVQLVESGGGLVQAGGSLRLSCAASGFTFEYYAMGWFRQAPGKERELVATITSGGSTYYADSVKGRFTISRDNAKNTVYLQMNSLKPEDTAVYDCNTSSPWIEDYWGQGTQVTVSS,low polyreactivity
15,QVQLVESGGGLVQAGGSLRLSCAASGFTFEYYAMGWYRQAPGKERELVAAIDTGGSTNYADSVKGRFTISRDNAKNTVYLQMNSLKPEDTAVYYCAADWSWWDGEDYHFEYDYWGQGTQVTVSS,low polyreactivity
16,QVQLVESGGGLVQAGGSLRLSCAASGFTFEYYPMGWYRQAPGKERELVADITTSSAGTYYADSVKGRFTISRDNAKNTFYLQMNSLKPEDTAVYYCNRDALNTGEDLDYWGQGTQVSVSS,low polyreactivity
